From article PMC4889941, “Flexibility of KorA, a plasmid-encoded, global transcription regulator, in the presence and the absence of its operator” (Nucleic Acids Research, 2016)

Target: the molecule itself
Assay: SAXS; free KorA at 2.5, 5 and 10 mg/ml in 20 mM Tris-HCl pH 7.0, 100 mM NaCl, 1 mM EDTA, 293K; confirmed by SEC-SAXS (Superdex 200 Increase, 4 mg/ml); mass from I0 against bovine serum albumin

B1: KorA repressor from the IncP1 plasmid RK2 (natural protein)
chain: MKKRLTESQFQEAIQGLEVGQQTIEIARGVLVDGKPQATFATSLGLTRGAVSQAVHRVWAAFEDKNLPEGYARVTAVLPEHQAYIVRKWEADAKKKQETKR
notes: KorA, global transcription repressor encoded by the IncP1 plasmid RK2; 13C/15N-labelled protein was used for NMR; also called free KorA; KorA dimer
In the case of B1, the “stoichiometry N” value is reported as 2.
